The text below walks through data of article PMC4555173, “Octanoylation of early intermediates of mycobacterial methylglucose lipopolysaccharides” (Scientific Reports, 2015).

One data set addresses M. hassiacum OctT (Mycolicibacterium hassiacum, UniProt K5BJH8). The data set can be described thus: CoA release with DTNB at […] nm. It is filed as biochemical. Conditions: DGG 20 mM, Oct-CoA 80 μM; product inhibition; enzyme species not given, M. hassiacum inferred from the characterisation.
In data set [1] the target is M. tuberculosis OctT (Rv2418c) (Mycobacterium tuberculosis, UniProt P71725).
Chain of M. tuberculosis OctT (Rv2418c) (P71725 whole entry): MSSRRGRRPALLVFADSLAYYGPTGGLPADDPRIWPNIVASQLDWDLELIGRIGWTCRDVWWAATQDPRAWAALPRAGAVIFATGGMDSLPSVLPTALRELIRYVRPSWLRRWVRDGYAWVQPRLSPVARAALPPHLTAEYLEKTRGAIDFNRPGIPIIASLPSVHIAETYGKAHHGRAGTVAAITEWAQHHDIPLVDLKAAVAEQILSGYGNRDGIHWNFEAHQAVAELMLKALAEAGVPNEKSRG
Substrate in data set [2]: O=C(O)[C@@H](CO)O[C@H]1O[C@H](CO)[C@@H](O)[C@H](O)[C@H]1O
In words: purified protein. The format is biochemical, Mycolicibacterium smegmatis. The note with it: apparent, Oct-CoA 100 μM, 50 mM BTP, 37 °C.

Substrate in data set [3]: O=C(O)[C@@H](CO)O[C@H]1O[C@H](CO[C@H]2O[C@H](CO)[C@@H](O)[C@H](O)[C@H]2O)[C@@H](O)[C@H](O)[C@H]1O
In words: purified protein. The format is biochemical, Mycolicibacterium smegmatis. The note with it: apparent, Oct-CoA 100 μM, 50 mM BTP, 37 °C.

Substrate in data set [4]: CCCCCCCC(=O)SCCNC(=O)CCNC(=O)[C@H](O)C(C)(C)COP(=O)(O)OP(=O)(O)OC[C@H]1O[C@@H](n2cnc3c(N)ncnc32)[C@H](O)[C@@H]1OP(=O)(O)O
In words: purified protein. The format is biochemical, Mycolicibacterium smegmatis. Conditions: apparent, DGG 45 mM, 50 mM BTP, 37 °C, substrate inhibition above 100 μM.

Substrate in data set [5]: O=C(O)[C@@H](CO)O[C@H]1O[C@H](CO)[C@@H](O)[C@H](O)[C@H]1O
The data set can be described thus: purified protein. It is filed as biochemical, Mycolicibacterium hassiacum. Conditions: apparent, Oct-CoA 100 μM, 50 mM BTP, 37 °C.

Substrate in data set [6]: CCCCCC(=O)SCCNC(=O)CCNC(=O)[C@H](O)C(C)(C)COP(=O)(O)OP(=O)(O)OC[C@H]1O[C@@H](n2cnc3c(N)ncnc32)[C@H](O)[C@@H]1OP(=O)(O)O
The data set can be described thus: purified protein. The format is biochemical, Mycolicibacterium hassiacum. The note with it: apparent, DGG 20 mM, 50 mM BTP, 37 °C, substrate inhibition above 100 μM.

Substrate in data set [7]: O=C(O)[C@@H](CO)O[C@H]1O[C@H](CO[C@H]2O[C@H](CO)[C@@H](O)[C@H](O)[C@H]2O)[C@@H](O)[C@H](O)[C@H]1O
In words: purified protein. The format is biochemical, Mycolicibacterium hassiacum. The note with it: apparent, Oct-CoA 100 μM, 50 mM BTP, 37 °C.

Substrate in data set [8]: CCCCCCCC(=O)SCCNC(=O)CCNC(=O)[C@H](O)C(C)(C)COP(=O)(O)OP(=O)(O)OC[C@H]1O[C@@H](n2cnc3c(N)ncnc32)[C@H](O)[C@@H]1OP(=O)(O)O
The data set can be described thus: purified protein. The format is biochemical, Mycolicibacterium hassiacum. The note with it: apparent, DGG 20 mM, 50 mM BTP, 37 °C, substrate inhibition above 100 μM.

For the molecule `CCCCCCCC(=O)OC[C@H]1O[C@H](OC[C@H]2O[C@H](O[C@H](CO)C(=O)O)[C@H](O)[C@@H](O)[C@@H]2O)[C@H](O)[C@@H](O)[C@@H]1O` [compound 1], the “% loss of activity at 400 μM” value on M. hassiacum OctT is reported as 22%.
For the molecule `O=C(O)[C@@H](CO)O[C@H]1O[C@H](CO[C@H]2O[C@H](CO)[C@@H](O)[C@H](O)[C@H]2O)[C@@H](O)[C@H](O)[C@H]1O` [DGG, (2R)-2-O-α-D-glucopyranosyl-(1→6)-α-D-glucopyranosyl-2,3-dihydroxypropanoate], the “preparative conversion, TLC and NMR of product” value in [1] was “natural Oct-DGG produced by the M. tuberculosis, M. hassiacum and M. smegmatis recombinant OctT enzymes”.

B1: M. smegmatis OctT (Mycolicibacterium smegmatis MC2 155) (protein)
chain: MSSETSSESTGHRPVLLVFADSLSYFGPTGGLPADDPRIWPNIVGEQLGWDVELIGRIGWTCRDVWWAATQDPRSWAALPRAGAVVFATSGMDSLPSPLPTALREMIRYVRPPWLRRWVRDGYGWVQPRLSPIARSALPPHVTVEYLEMTRNAIDFNRPGIPVVASLPSVHIAETYGRAHHGREPTVRAITAWAEEHHVPLVDLKAAVADEVFGGRGNPDGIHWSFEAHRAVAELMLKGLAEAGVTQRDSAT
For the molecule B1, the Km (as a rule, the substrate concentration at which the rate is half of its maximum) in the data set “purified protein [2]” came to 19.0 ± 8.6 mM; in the data set “purified protein [3]”, 20.0 ± 3.6 mM; in the data set “purified protein [4]”, 0.03 ± 0.01 mM. The kcat/Km (commonly the second-order rate constant that governs catalysis at low substrate concentration) in “purified protein [3]” was 1.83 ± 0.833 M⁻¹ s⁻¹; in the data set “purified protein [4]” it was 1430 ± 483 M⁻¹ s⁻¹.

B2: M. hassiacum OctT (Mycolicibacterium hassiacum DSM 44199) (protein)
chain: MSGRRPTLLVFCDSLSYYGPRGGLPADDPRIWPNIVASQLDWDVELIGRVGWTSRDVWWAATQDPRAWAALPRAGAVIFATGGMDSLPSPLPTALRELIRYIRPPWLRRRVRDLYGWLQPRLSPVSRNALPPHLTAEYLEMTRGAIDFNRPGIPVVAALPSVHIADSYGRAHHGREATARAITEWARQHGVVLVDLKAAVADQVLNGRGNPDGIHWNFEAHQAVAELMLKALAEAGVPCR
For B2, the figures for the Km in the data set “purified protein [5]”, in the data set “purified protein [7]” and in the data set “purified protein [8]” were 6.6 ± 0.78 mM, 9.5 ± 0.8 mM and 0.06 ± 0.01 mM, respectively. Also, the kcat/Km was 0.05 ± 0.00667 M⁻¹ s⁻¹ in “purified protein [5]”, 35 ± 10 M⁻¹ s⁻¹ in the data set “purified protein [6]”, 0.167 M⁻¹ s⁻¹ in “purified protein [7]” and 31.7 ± 6.67 M⁻¹ s⁻¹ in the data set “purified protein [8]”.
